Each block holds one binder with its values, some of them ahead of it.
How the values were obtained:
[1] = biological target: T1, rHuman HGF R/c-MET/Fc Chimera, CF (R&D Systems Cat#358-MT/CF) (human, UniProt P08581 25-932); assay: ECL multispot (MSD) assay, antigen spotted on plate, Fab at 0.1 µM
T1 construct: Bought recombinant protein; also called HGF R/Fc; hepatocyte growth factor receptor; Fc part of the bought chimera not given

[2] = biological target: T2, rHuman ErbB2/Fc Chimera, CF (R&D Systems Cat#1129-ER) (human, UniProt P04626 23-652); assay: as above
T2 construct: Bought recombinant protein; also called human epidermal growth factor 2 receptor; Fc part of the bought chimera not given

[3] = biological target: T3, rHuman IGF-1 sR, CF (R&D Systems Cat#391-GR) (human, UniProt P08069 31-932); assay: as above
T3 construct: Bought recombinant soluble receptor; also called insulin-like growth factor-1 soluble receptor

[4] = biological target: T4, Recombinant Human DLL4 (R&D Systems Cat#1506-D4/CF) (human, UniProt Q9NR61 27-524); assay: as above
T4 construct: Bought recombinant protein; also called delta-like protein 4; rHuman DLL4

[5] = biological target: T5, rHuman CD44/Fc Chimera, CF (R&D Systems Cat#3660-CD) (human, UniProt P16070 21-220); assay: as above
T5 construct: Bought recombinant protein; Fc part of the bought chimera not given

[6] = biological target: T6, rHuman Notch-1/Fc Chimera, CF (R&D Systems Cat#3647-TK) (human, UniProt P46531 19-526); assay: as above
T6 construct: Bought recombinant protein; Fc part of the bought chimera not given

[7] = biological target: T7, rHuman P-Cadherin/Fc Chimera, CF (R&D Systems Cat#861-PC) (human, UniProt P22223 108-654); assay: as above
T7 construct: Bought recombinant protein; Fc part of the bought chimera not given

[8] = biological target: T8, rHuman EGF R/Fc Chimera, CF (R&D Systems Cat#344-ER) (human, UniProt P00533 25-645); assay: as above
T8 construct: Bought recombinant protein; also called epidermal growth factor receptor; Fc part of the bought chimera not given

[9] = biological target: T9, rHuman Erythropoietin R/Fc Chimera, CF (R&D Systems Cat#963-ER) (human, UniProt P19235 25-250); assay: as above
T9 construct: Bought recombinant protein; also called EPO R; EPO R/Fc; Fc part of the bought chimera not given
T9 sequence (looked up): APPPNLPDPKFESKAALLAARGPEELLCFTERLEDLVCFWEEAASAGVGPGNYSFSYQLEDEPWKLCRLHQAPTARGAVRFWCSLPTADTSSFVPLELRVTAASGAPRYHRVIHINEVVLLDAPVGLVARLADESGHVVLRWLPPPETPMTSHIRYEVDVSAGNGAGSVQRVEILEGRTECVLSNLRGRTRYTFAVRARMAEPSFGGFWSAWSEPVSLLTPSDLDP

[10] = biological target: T1, rHuman HGF R/c-MET/Fc Chimera, CF (R&D …); assay: ECL multispot (MSD) assay, antigen spotted on plate, Fab at 0.01 µM
[11] = biological target: T2, rHuman ErbB2/Fc Chimera, CF (R&D …); assay: as above
[12] = biological target: T3, rHuman IGF-1 sR, CF (R&D Systems …); assay: as above
[13] = biological target: T4, Recombinant Human DLL4 (R&D Systems …); assay: as above
[14] = biological target: T5, rHuman CD44/Fc Chimera, CF (R&D Systems …); assay: as above
[15] = biological target: T6, rHuman Notch-1/Fc Chimera, CF (R&D …); assay: as above
[16] = biological target: T7, rHuman P-Cadherin/Fc Chimera, CF (R&D …); assay: as above
[17] = biological target: T8, rHuman EGF R/Fc Chimera, CF (R&D …); assay: as above
[18] = biological target: T9, rHuman Erythropoietin R/Fc Chimera, CF …; assay: as above
[19] = biological target: T10, rHuman CD44/Fc Chimera, CF (R&D Systems Cat#3660-CD) (human, UniProt P16070 21-220); assay: Multispot ECL (MSD), antigen spotted on plate, Fab 3.3 nM; blank spot 359
T10 construct: Bought recombinant protein; Fc part of the bought chimera not given

[20] = biological target: T11, rHuman ErbB2/Fc Chimera, CF (R&D Systems Cat#1129-ER) (human, UniProt P04626 23-652); assay: as above
T11 construct: Bought recombinant protein; also called human epidermal growth factor 2 receptor; Fc part of the bought chimera not given

[21] = biological target: T12, rHuman Erythropoietin R/Fc Chimera, CF (R&D Systems Cat#963-ER) (human, UniProt P19235 25-250); assay: as above
T12 construct: Bought recombinant protein; also called EPO R/Fc; Epo R; Fc part of the bought chimera not given
T12 sequence (looked up): T9 sequence (looked up)

[22] = biological target: T13, rHuman EGF R/Fc Chimera, CF (R&D Systems Cat#344-ER) (human, UniProt P00533 25-645); assay: as above
T13 construct: Bought recombinant protein; also called epidermal growth factor receptor; Fc part of the bought chimera not given

[23] = biological target: T14, rHuman HGF R/c-MET/Fc Chimera, CF (R&D Systems Cat#358-MT/CF) (human, UniProt P08581 25-932); assay: as above
T14 construct: Bought recombinant protein; also called HGF R/Fc; hepatocyte growth factor receptor; Fc part of the bought chimera not given

[24] = biological target: T10, rHuman CD44/Fc Chimera, CF (R&D Systems …); assay: Multispot ECL (MSD), antigen spotted on plate, Fab 210 nM; blank spot 833
[25] = biological target: T11, rHuman ErbB2/Fc Chimera, CF (R&D …); assay: as above
[26] = biological target: T12, rHuman Erythropoietin R/Fc Chimera, CF …; assay: as above
[27] = biological target: T13, rHuman EGF R/Fc Chimera, CF (R&D …); assay: as above
[28] = biological target: T14, rHuman HGF R/c-MET/Fc Chimera, CF (R&D …); assay: as above
[29] = biological target: T10, rHuman CD44/Fc Chimera, CF (R&D Systems …); assay: Multispot ECL (MSD), antigen spotted on plate, Fab 13.1 nM; blank spot 376
[30] = biological target: T11, rHuman ErbB2/Fc Chimera, CF (R&D …); assay: as above
[31] = biological target: T12, rHuman Erythropoietin R/Fc Chimera, CF …; assay: as above
[32] = biological target: T13, rHuman EGF R/Fc Chimera, CF (R&D …); assay: as above
[33] = biological target: T14, rHuman HGF R/c-MET/Fc Chimera, CF (R&D …); assay: as above
[34] = biological target: T10, rHuman CD44/Fc Chimera, CF (R&D Systems …); assay: Multispot ECL (MSD), antigen spotted on plate, Fab 52.5 nM; blank spot 467
[35] = biological target: T11, rHuman ErbB2/Fc Chimera, CF (R&D …); assay: as above
[36] = biological target: T12, rHuman Erythropoietin R/Fc Chimera, CF …; assay: as above
[37] = biological target: T13, rHuman EGF R/Fc Chimera, CF (R&D …); assay: as above
[38] = biological target: T14, rHuman HGF R/c-MET/Fc Chimera, CF (R&D …); assay: as above

ECL signal/noise ratio [1]: 0.5
ECL signal/noise ratio [2]: 0.8
ECL signal/noise ratio [3]: 1.3
ECL signal/noise ratio [4]: 71.6
ECL signal/noise ratio [5]: 1.3
ECL signal/noise ratio [6]: 1.4
ECL signal/noise ratio [7]: 1
ECL signal/noise ratio [8]: 0.9
ECL signal/noise ratio [9]: 1.3
ECL signal/noise ratio [10]: 0.5
ECL signal/noise ratio [11]: 1
ECL signal/noise ratio [12]: 0.5
ECL signal/noise ratio [13]: 10
ECL signal/noise ratio [14]: 0.9
ECL signal/noise ratio [15]: 0.6
ECL signal/noise ratio [16]: 0.2
ECL signal/noise ratio [17]: 0.8
ECL signal/noise ratio [18]: 0.8
B1: Fab VH1-46_IGHD6-6*01_IGHJ1*01 S102A & L6_IGKJ1*01 (Fab, V domains shown)
VH: QVQLVQSGAEVKKPGASVKVSCKASGYTFTSYYMHWVRQAPGQGLEWMGIINPSGGSTSYAQKFQGRVTMTRDTSTSTVYMELSSLRSEDTAVYYCAREEYASSSAEYFQHWGQGTLVTVSS
VL: not shown
notes: Tested as a Fab expressed in E. coli (Plasmid A: CH1, His6 and Flag tags; Plasmid C: kappa CL)

ECL signal at 3.3 nM Fab [19]: 621
ECL signal at 3.3 nM Fab [20]: 1030
ECL signal at 3.3 nM Fab [21]: 695
ECL signal at 3.3 nM Fab [22]: 847
ECL signal at 3.3 nM Fab [23]: 849
ECL signal at 210 nM Fab [24]: 1400
ECL signal at 210 nM Fab [25]: 1980
ECL signal at 210 nM Fab [26]: 2120
ECL signal at 210 nM Fab [27]: 1620
ECL signal at 210 nM Fab [28]: 2060
ECL signal at 13.1 nM Fab [29]: 708
ECL signal at 13.1 nM Fab [30]: 930
ECL signal at 13.1 nM Fab [31]: 776
ECL signal at 13.1 nM Fab [32]: 824
ECL signal at 13.1 nM Fab [33]: 981
ECL signal at 52.5 nM Fab [34]: 897
ECL signal at 52.5 nM Fab [35]: 1510
ECL signal at 52.5 nM Fab [36]: 1320
ECL signal at 52.5 nM Fab [37]: 1110
ECL signal at 52.5 nM Fab [38]: 1290
B2: Fab VH4-31_IGHD2-15*01_IGHJ2*01 & V1-4_IGLJ4*01 (Fab, V domains shown)
VH: QVQLQESGPGLVKPSQTLSLTCTVSGGSISSGGYYWSWIRQHPGKGLEWIGYIYYSGSTYYNPSLKSRVTISVDTSKNQFSLKLSSVTAADTAVYYCAREGYCSGGSCYSYWYFDLWGRGTLVTVSS
VL: QSALTQPASVSGSPGQSITISCTGTSSDVGGYNYVSWYQQHPGKAPKLMIYEVSNRPSGVSNRFSGSKSGNTASLTISGLQAEDEADYYCSSYTSSSTLFVFGGGTQLIIL
notes: Tested as a Fab made in E. coli; The heavy chain variable region was cloned into Plasmid A (CH1 constant region, His6 and Flag tags); The lambda light chain variable region was cloned into Plasmid E (lambda CL); Only the variable domains are tied to this Fab by name
